The target of assay [1] is T1, human TREM2 on the cell surface (human, UniProt Q9NZC2 19-230).
T1 sequence: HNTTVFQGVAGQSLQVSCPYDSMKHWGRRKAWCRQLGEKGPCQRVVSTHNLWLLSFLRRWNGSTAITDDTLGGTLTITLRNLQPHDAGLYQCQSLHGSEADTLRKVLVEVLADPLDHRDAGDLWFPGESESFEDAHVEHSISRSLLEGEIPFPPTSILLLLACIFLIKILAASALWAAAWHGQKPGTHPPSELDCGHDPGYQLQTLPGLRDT
The experiment in a line: cell-based or functional assay.

Assay [2] concerns the target T1, human TREM2 on the cell surface. Briefly: flow cytometry, dose-titrated binding to HEK293-H6 cells.
Assay [3] concerns the target T2, His-tagged human TREM2 ECD (human, UniProt Q9NZC2 19-172).
T2 construct: Biacore and HDX say only recombinant human TREM2 (ECD); also called recombinant human TREM2; hTREM2
T2 sequence: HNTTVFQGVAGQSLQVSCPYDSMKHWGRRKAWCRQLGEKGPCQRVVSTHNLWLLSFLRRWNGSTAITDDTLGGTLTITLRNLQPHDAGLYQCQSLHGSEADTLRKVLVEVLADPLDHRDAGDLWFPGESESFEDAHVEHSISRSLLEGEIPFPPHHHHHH
The experiment in a line: SPR (Biacore), antibody captured via anti-human Fab, recombinant TREM2 ECD injected, 1:1 fit. The method in brief: (§1)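 Antibodies captured on a CM5 chip via anti-human Fab, then 3-fold serial dilutions of recombinant human or cynomolgus TREM2 ECD injected at 30 μL/min in HBS-EP+. Association 300 s, dissociation 600+ s, blank-cell subtracted; kon and koff from simultaneous 1:1 Langmuir fit.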

In assay [4] the target is T3, recombinant cynomolgus TREM2 ECD (cynomolgus).
T3 construct: extracellular domain; also called cyno TREM2
The assay is described as above. The method in brief: as §1

For assay [5], the target named is T1, human TREM2 on the cell surface. The experiment in a line: cell binding, human macrophages, dose titration.
Assay [6] deals with T2, His-tagged human TREM2 ECD. Briefly: SPR (Biacore); Table 5 run, parent beside its humanized variants.
In assay [7] the target is T4, human TREM2 full length stalk region peptide (aa 129-172) (human, biotinylated (site not stated)).
T4 construct: also called Human TREM2 peptide (aa 129-172); full-length TREM2 stalk peptide
T4 peptide: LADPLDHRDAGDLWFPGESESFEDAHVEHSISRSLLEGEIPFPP
Briefly: ELISA on biotinylated peptide captured by streptavidin; A450 normalised to isotype control. The method in brief:
(§2)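 Sandwich ELISA: biotinylated TREM2 stalk peptides captured on streptavidin-coated plates, antibodies added for 1 h in 1% BSA/PBS, binding detected with anti-human kappa-HRP and TMB at A450. Values expressed as fold over isotype-control background.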

For assay [8], the target named is T5, mouse TREM2 full length stalk region peptide (aa 131-169) (mouse, UniProt Q99NH8 131-169, biotinylated (site not stated)).
T5 peptide (looked up): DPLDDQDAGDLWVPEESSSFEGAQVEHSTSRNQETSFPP
The assay is described as above. The method in brief: as §2

The target in assay [9] is T6, human TREM2 truncated stalk peptide (aa 149-163) (human, also: biotinylated (site not given here)).
T6 construct: also called Human TREM2 peptide (aa 149-163); truncated stalk peptide containing the ADAM10/17 cleavage site
T6 peptide: SFEDAHVEHSISRSL
The assay is described as above. An outline of the steps: as §2

In assay [10] the target is T4, human TREM2 full length stalk region …. The experiment in a line: fluorescence polarization assay with TREM2 stalk peptide and ADAM17. As for the experimental part: The ability of anti-TREM2 antibodies to inhibit TREM2 stalk peptide cleavage by ADAM17 was also analyzed using a fluorescence polarization assay. TREM2 stalk peptides were first prepared in assay buffer (25 mM Tris pH 7.5, 2.5 μM ZnCl₂, 0.005% Brij-35) with streptavidin. Anti-TREM2 antibodies were then pre-incubated with TREM2 stalk peptides for 30 minutes at room temperature. After the pre-incubation period, ADAM17 (R&D systems, Catalog No. 930-ADB) was added and incubated with the peptides for 20 hours at 37° C. The following day, samples were further diluted in assay buffer and transferred to a black opaque 384-well plate. Fluorescence polarization was subsequently measured on Perkin Elmer EnVision plate reader. The fluorescence polarization of TREM2 stalk peptides pre-incubated with anti-TREM2 antibody was compared to fluorescence polarization of full-length TREM2 stalk peptide and enzyme control (full-length TREM2 stalk peptide with ADAM17).

No end group written: not given here.

B1: CL0020188 (antibody, V domains shown)
VH: EVKLLDSGGGLVQAGGSLRLSCAGSGFTFTDFYMSWIRQPPGKAPEWLGVIRNKANGYTAGYNPSVKGRFTISRDNTQNILYLQMNTLRAEDTAIYYCARLTYGFDYWGQGVMVTVSS
VL: DIVMTQGALPNPVPSGESASITCQSSKSLLHSNGKTYLNWYLQRPGQSPQLLIYWMSTRASGVSDRFSGSGSGTDFTLKISSVEAEDVGVYYCQQFLEYPFTFGSGTKLEIK
notes: also called Clone CL0020188
For the molecule B1, the “NFAT EC50 (nM), plate coated mAb” value in assay [1] was determined as 91.2 nM. Moreover, the “Survival EC50 (nM), plate coated mAb, human macrophages” value in assay [1] was 2.4 nM. The “pSyk activation (human macrophages) EC50 (nM)” value in assay [1] stood at 7.7 nM. Further, the concentration giving a half-maximal response (EC50) in assay [2] was 0.44 nM; in assay [5], 0.5 nM. For the same molecule, the dissociation constant (Kd) turned out to be 5.2 nM in assay [3], 2 nM in [4] and 9.5 nM in assay [6]. Also, the “fold over background (A450)” value in assay [7] came out at 51 fold; in assay [8], 33 fold.

B2: CL0020107 (antibody, V domains shown)
VH: QVQLQQPGAELVKPGASVKMSCRASGYTFTNYWISWVKQRPGQGLEWIGDIYPHSTSTNYNERFRSKATLTVDKSSTTAYMQLSSLTSEDSAVYYCAREGFGISAWGQGTTLTVSS
VL: QIVLTQSPAIMSASPGEKVTITCSATSSVSYMHWFQQKPGTSPKLWIYSTSNLASGVPARFSGSGSGTSHSLTISRMEAEDAATYYCQQRSSYPLTFGSGTKLELK
notes: also called Clone CL0020107
As for B2, in assay [1], the “NFAT EC50 (nM), plate coated mAb” value was 10.9 nM. In addition, in assay [1], the “Survival EC50 (nM), plate coated mAb, human macrophages” value is 0.53 nM. In addition, the “pSyk activation (human macrophages) EC50 (nM)” value in assay [1] is 28.5 nM. Besides, the equilibrium dissociation constant (Kd) worked out at 1.47 nM in [3] and 104 nM in assay [4]. For the same molecule, the EC50 in assay [5] is 4.4 nM. The “fold over background (A450)” value in assay [7] is 1.7 fold; in [8], 1.3 fold; in [9] it was 1.4 fold. The binding result in assay [10] is on record as “no binding”.

Values taken from patent publication US20220119522A1 (DENALI THERAPEUTICS, published 2022).
